Data: US20220041686A1 (Stanford University, published 2022)

Columns and labels:
Test in all cases: quantification of the flow cytometry plots of panel A (B7H3 Fc staining, CAR MFI), with or without 3 µM grazoprevir [Cont.) B]
[1] = target: T1, 065
T1 construct: Construct named only by number on the sheets; also called B7H3-cis SNIP scFv CAR with cleavage site 065

[2] = target: T2, 066
T2 construct: Construct named only by number on the sheets; also called B7H3-cis SNIP scFv CAR with cleavage site 066

[3] = target: T3, B7H3-SNIP-scFv CAR (extracellular; cis)
T3 construct: Only the full-length (uncleaved) CAR carries the scFv and is stained by B7H3 Fc; also called B7H3-cis SNIP scFv; B7H3-cis SNIP scFv CAR

B1: B7H3-Fc (Fc fusion)
chain: LEVQVPEDPVVALVGTDATLCCSFSPEPGFSLAQLNLIWQLTDTKQLVHSFAEGQDQGSAYANRTALFPDLLAQGNASLRLQRVRVADEGSFTCFVSIRDFGSAAVSLQVAAPYSKPSMTLEPNKDLRPGDTVTITCSSYQGYPEAEVFWQDGQGVPLTGNVTTSQMANEQGLFDVHSILRVVLGANGTYSCLVRNPVLQQDAHSSVTITPQRSPTGAVEVQVPEDPVVALVGTDATLRCSFSPEPGFSLAQLNLIWQLTDTKQLVHSFTEGRDQGSAYANRTALFPDLLAQGNASLRLQRVRVADEGSFTCFVSIRDFGSAAVSLQVAAPYSKPSMTLEPNKDLRPGDTVTITCSSYRGYPEAEVFWQDGQGVPLTGNVTTSQMANEQGLFDVHSVLRVVLGANGTYSCLVRNPVLQQDAHGSVTITGQPMT
notes: Staining reagent for flow cytometry; not shown: Fc part
fold CAR MFI, + Drug over - Drug [1]: 157 fold
fold CAR MFI, + Drug over - Drug [2]: 129 fold
fold CAR MFI, + Drug over - Drug [3]: 70 fold
